Laboratory results as given in paper PMC6868009 (Nature Communications, 2019).

B1: TcdB2 (TcB) of the TcdB2-TccC3 cocoon (natural protein)
chain: MQNSQDFSITELSLPKGGGAITGMGEALTPTGPDGMAALSLPLPISAGRGYAPAFTLNYNSGAGNSPFGLGWDCNVMTIRRRTHFGVPHYDETDTFLGPEGEVLVVADQPRDESTLQGINLGATFTVTGYRSRLESHFSRLEYWQPKTTGKTDFWLIYSPDGQVHLLGKSPQARISNPSQTTQTAQWLLEASVSSRGEQIYYQYRAEDDTGCEADEITHHLQATAQRYLHIVYYGNRTASETLPGLDGSAPSQADWLFYLVFDYGERSNNLKTPPAFSTTGSWLCRQDRFSRYEYGFEIRTRRLCRQVLMYHHLQALDSKITEHNGPTLVSRLILNYDESAIASTLVFVRRVGHEQDGNVVTLPPLELAYQDFSPRHHAHWQPMDVLANFNAIQRWQLVDLKGEGLPGLLYQDKGAWWYRSAQRLGEIGSDAVTWEKMQPLSVIPSLQSNASLVDINGDGQLDWVITGPGLRGYHSQRPDGSWTRFTPLNALPVEYTHPRAQLADLMGAGLSDLVLIGPKSVRLYANTRDGFAKGKDVVQSGDITLPVPGADPRKLVAFSDVLGSGQAHLVEVSATKVTCWPNLGRGRFGQPITLPGFSQPATEFNPAQVYLADLDGSGPTDLIYVHTNRLDIFLNKSGNGFAEPVTLRFPEGLRFDHTCQLQMADVQGLGVASLILSVPHMSPHHWRCDLTNMKPWLLNEMNNNMGVHHTLRYRSSSQFWLDEKAAALTTGQTPVCYLPFPIHTLWQTETEDEISGNKLVTTLRYARGAWDGREREFRGFGYVEQTDSHQLAQGNAPERTPPALTKNWYATGLPVIDNALSTEYWRDDQAFAGFSPRFTTWQDNKDVPLTPEDDNSRYWFNRALKGQLLRSELYGLDDSTNKHVPYTVTEFRSQVRRLQHTDSRYPVLWSSVVESRNYHYERIASDPQCSQNITLSSDRFGQPLKQLSVQYPRRQQPAINLYPDTLPDKLLANSYDDQQRQLRLTYQQSSWHHLTNNTVRVLGLPDSTRSDIFTYGAENVPAGGLNLELLSDKNSLIADDKPREYLGQQKTAYTDGQNTTPLQTPTRQALIAFTETTVFNQSTLSAFNGSIPSDKLSTTLEQAGYQQTNYLFPRTGEDKVWVAHHGYTDYGTAAQFWRPQKQSNTQLTGKITLIWDANYCVVVQTRDAAGLTTSAKYDWRFLTPVQLTDINDNQHLITLDALGRPITLRFWGTENGKMTGYSSPEKASFSPPSDVNAAIELKKPLPVAQCQVYAPESWMPVLSQKTFNRLAEQDWQKLYNARIITEDGRICTLAYRRWVQSQKAIPQLISLLNNGPRLPPHSLTLTTDRYDHDPEQQIRQQVVFSDGFGRLLQAAARHEAGMARQRNEDGSLIINVQHTENRWAVTGRTEYDNKGQPIRTYQPYFLNDWRYVSNDSARQEKEAYADTHVYDPIGREIKVITAKGWFRRTLFTPWFTVNEDENDTAAEVKKVKM
B2: TccC3 (TcC) of the TcdB2-TccC3 cocoon, without the HVR (domain or fragment)
chain: MKNIDPKLYQKTPTVSVYDNRGLIIRNIDFHRTTANGDPDTRITRHQYDIHGHLNQSIDPRLYEAKQTNNTIKPNFLWQYDLTGNPLCTESIDAGRTVTLNDIEGRPLLTVTATGVIQTRQYETSSLPGRLLSVAEQTPEEKTSRITERLIWAGNTEAEKDHNLAGQCVRHYDTAGVTRLESLSLTGTVLSQSSQLLIDTQEANWTGDNETVWQNMLADDIYTTLSTFDATGALLTQTDAKGNIQRLAYDVAGQLNGSWLTLKGQTEQVIIKSLTYSAAGQKLREEHGNDVITEYSYEPETQRLIGIKTRRPSDTKVLQDLRYEYDPVGNVISIRNDAEATRFWHNQKVMPENTYTYDSLYQLISATGREMANIGQQSHQFPSPALPSDNNTYTNYTRTYTYDRGGNLTKIQHSSPATQNNYTTNITVSNRSNRAVLSTLTEDPAQVDALFDAGGHQNTLISGQNLNWNTRGELQQVTLVKRDKGANDDREWYRYSGDGRRMLKINEQQASNNAQTQRVTYLPNLELRLTQNSTATTEDLQVITVGEAGRAQVRVLHWESGKPEDIDNNQLRYSYDNLIGSSQLELDSEGQIISEEEYYPYGGTALWAARNQTEASYKTIRYSGKERDATGLYYYGYRYYQPWIGRWLSSDPAGTIDGLNLYRMVRNNPVTLLDPDGL

How the values were obtained:
[1] = molecular target: Photorhabdus luminescens TcdA1 (TcA) (Photorhabdus luminescens, UniProt Q9RN43 1-2516); assay: cryo-EM structure; details: both partners purified
[2] = molecular target: B1; assay: crystal structure; details: both partners purified

Binder | binding result [1] | binding result [2]
B1 | binds | 
B2 |  | binds
